In patent publication US20230220071A1 (Hoffmann-La Roche, published 2023):
Changes are numbered by the printed parent chain.

B1: clone 299 VH 0 (rb) / VL 5 (antibody, V domains shown)
VH: QSMEESGGRLVTPGTPLTLTCTVSGFSLSSYAMSWVRQAPGKGLEWIGYIWSGGSTDYASWAKGRFTISKTSTTVDLKITSPTTEDTATYFCARRYGTSYPDYGDANGFDPWGPGTLVTVSS
VL: DIQMTQSPSSLSASVGDRVTITCRASQSISSYLSWYQQKPGKAPKLLIYRASTLASGVPSRFSGSGSGTDFTLTISSLQPEDFATYYCQQSYSSSNVDNTFGGGTKVEIK
B2: clone 299 VH 0 (rb) / VL 14 (antibody, V domains shown)
VH: B1 VH
VL: DIVMTQSPDSLAVSLGERATINCKSSQSISSYLSWYQQKPGQRPKLLIYRASTLASGVPDRFSGSGSGTDFTLTISSLQAEDVAVYYCQQSYSSSNVDNTFGGGTKVEIK
B3: clone 299 VH 0 (rb) / VL 15 (antibody, V domains shown)
VH: B1 VH
VL: B2 VL with S34I, R43P, S91A
B4: clone 299 VH 0 (rb) / VL 6 (antibody, V domains shown)
VH: B1 VH
VL: B1 VL with D1A, M4L
B5: clone 299 VH 22 / VL 9-NYA (antibody, V domains shown)
VH: QSMQESGPGLVKPSQTLSLTCTVSGFSLSSYAMSWVRQHPGKGLEWIGYIWSGGSTDYASWAKSRVTISVDTSKNQVSLKLSSVTAADTAVYYCARRYGTSYPDYGDANGFDPWGQGTLVTVSS
VL: B1 VL with D1A, M4L, S34A, S91N, S93A
B6: clone 299 VH 13 / VL 9-NYA (antibody, V domains shown)
VH: QVQLQESGPGLVKPSETLSLTCTVSGFSLSSYAMSWIRQPPGKGLEWIGYIWSGGSTDYNPSLKSRVTISVDTSKNQVSLKLSSVTAADTAVYYCARRYGTSYPDYGDANGFDPWGQGTLVTVSS
VL: B1 VL with D1A, M4L, S34A, S91N, S93A
B7: clone 299 VH 0 (rb) / VL 7 (antibody, V domains shown)
VH: B1 VH
VL: B1 VL with D1A, M4L, S34A
B8: clone 299 VH 21 / VL 9-NYA (antibody, V domains shown)
VH: B5 VH with V36I
VL: B1 VL with D1A, M4L, S34A, S91N, S93A
B9: clone 299 VH 18 / VL 9-NYA (antibody, V domains shown)
VH: B6 VH with E16Q, P40H, N60A, V78F
VL: B1 VL with D1A, M4L, S34A, S91N, S93A
B10: clone 299 VH 11 / VL 9-NYA (antibody, V domains shown)
VH: QQLLESGGGLVQPGGSLRLSCAASGFSLSSYAMSWVRQAPGKGLEWVGYIWSGGSTDYADSVKGRFTISRDNSKNTLYLQMNSLRAEDTAVYYCARRYGTSYPDYGDANGFDPWGQGTLVTVSS
VL: B1 VL with D1A, M4L, S34A, S91N, S93A
B11: clone 299 VH 0 (rb) / VL 12 (antibody, V domains shown)
VH: B1 VH
VL: B1 VL with S34A, G66R, S91H
B12: clone 299 VH 16 / VL 9-NYA (antibody, V domains shown)
VH: B5 VH with S2Q, M3L, Q15E, H39P, A59N, S60P, W61S, A62L, Q116P
VL: B1 VL with D1A, M4L, S34A, S91N, S93A
B13: clone 299 VH 0 (rb) / VL 17 (antibody, V domains shown)
VH: B1 VH
VL: B1 VL with D1A, M4L, S34A, S91T
B14: clone 299 VH 12 / VL 9-NYA (antibody, V domains shown)
VH: B6 VH with V78F
VL: B1 VL with D1A, M4L, S34A, S91N, S93A
B15: clone 299 VH 9 / VL 9-NYA (antibody, V domains shown)
VH: B10 VH with S27T, L28F, R96K
VL: B1 VL with D1A, M4L, S34A, S91N, S93A
B16: clone 299 VH 15 / VL 9-NYA (antibody, V domains shown)
VH: B5 VH with S2Q, M3L, Q15E, H39P, A59N, S60P, W61S, A62L
VL: B1 VL with D1A, M4L, S34A, S91N, S93A
B17: clone 299 VH 0 (rb) / VL 10 (antibody, V domains shown)
VH: B1 VH
VL: B1 VL with G66R
B18: clone 299 VH 0 (rb) / VL 8 (antibody, V domains shown)
VH: B1 VH
VL: B1 VL with D1A, I2Y, M4L
B19: clone 299 VH 19 / VL 9-NYA (antibody, V domains shown)
VH: B5 VH with V36I, S60P, W61S, A62L, V77F
VL: B1 VL with D1A, M4L, S34A, S91N, S93A
B20: clone 299 VH 17 / VL 9-NYA (antibody, V domains shown)
VH: B5 VH with S2Q, M3L, Q15E, H39P, A59N, S60P, W61S, A62L, V70K, Q116P
VL: B1 VL with D1A, M4L, S34A, S91N, S93A
B21: clone 299 VH 20 / VL 9-NYA (antibody, V domains shown)
VH: B5 VH with V36I, S60P, W61S, A62L
VL: B1 VL with D1A, M4L, S34A, S91N, S93A
B22: clone 299 VH 20 / VL 0 (rb) (antibody, V domains shown)
VH: B5 VH with V36I, S60P, W61S, A62L
VL: AYDMTQTPASVEVAVGGTVTIKCQASQSISSYLSWYQQKPGQRPKLLIYRASTLASGVSSRFKGSGSGTQFTLTISGVECADAATYYCQQCYSSSNVDNTFGGGTEVVVK
B23: clone 299 VH 11 / VL 0 (rb) (antibody, V domains shown)
VH: B10 VH
VL: B22 VL
B24: clone 299 VH 23-DANG / VL 0 (rb) (antibody, V domains shown)
VH: QSMQESGPGLVKPSQTLSLTCTVSGFSLSSYAMSWIRQHPGKGLEWIGYIWSGGSTDYASWAKSRVTISKTSTTVSLKLSSVTAADTAVYYCARRYGTSYPDYGDANGFDPWGQGTLVTVSS
VL: B22 VL
B25: clone 299 VH 12 / VL 0 (rb) (antibody, V domains shown)
VH: B6 VH with V78F
VL: B22 VL
B26: clone 299 VH 5 / VL 0 (rb) (antibody, V domains shown)
VH: B10 VH with Q2S, L3M, L4E, S6T, V11I, Q116P
VL: B22 VL
B27: clone 299 VH 21 / VL 0 (rb) (antibody, V domains shown)
VH: B5 VH with V36I
VL: B22 VL
B28: clone 299 VH 16 / VL 0 (rb) (antibody, V domains shown)
VH: B5 VH with S2Q, M3L, Q15E, H39P, A59N, S60P, W61S, A62L, Q116P
VL: B22 VL
B29: clone 299 VH 18 / VL 0 (rb) (antibody, V domains shown)
VH: B6 VH with E16Q, P40H, N60A, V78F
VL: B22 VL
B30: clone 299 VH 17 / VL 0 (rb) (antibody, V domains shown)
VH: B5 VH with S2Q, M3L, Q15E, H39P, A59N, S60P, W61S, A62L, V70K, Q116P
VL: B22 VL
B31: clone 299 VH 7 / VL 0 (rb) (antibody, V domains shown)
VH: B10 VH with L4V, S6T, V11I, V47I, D60S, S61W, V62A
VL: B22 VL
B32: clone 299 VH 22 / VL 0 (rb) (antibody, V domains shown)
VH: B5 VH
VL: B22 VL
B33: clone 299 VH 15 / VL 0 (rb) (antibody, V domains shown)
VH: B5 VH with S2Q, M3L, Q15E, H39P, A59N, S60P, W61S, A62L
VL: B22 VL
B34: clone 299 VH 19 / VL 0 (rb) (antibody, V domains shown)
VH: B5 VH with V36I, S60P, W61S, A62L, V77F
VL: B22 VL
B35: clone 299 VH 1 / VL 0 (rb) (antibody, V domains shown)
VH: B10 VH with Q1V, L4V, S6T, V11I
VL: B22 VL
B36: clone 299 VH 9 / VL 0 (rb) (antibody, V domains shown)
VH: B10 VH with S27T, L28F, R96K
VL: B22 VL

target: T1, human transferrin receptor (BIAcore, construct not stated) (human, UniProt P02786 89-760); experiment: SPR, 25 C
T1 construct: also called huTfR
T1 sequence (P02786 89-760): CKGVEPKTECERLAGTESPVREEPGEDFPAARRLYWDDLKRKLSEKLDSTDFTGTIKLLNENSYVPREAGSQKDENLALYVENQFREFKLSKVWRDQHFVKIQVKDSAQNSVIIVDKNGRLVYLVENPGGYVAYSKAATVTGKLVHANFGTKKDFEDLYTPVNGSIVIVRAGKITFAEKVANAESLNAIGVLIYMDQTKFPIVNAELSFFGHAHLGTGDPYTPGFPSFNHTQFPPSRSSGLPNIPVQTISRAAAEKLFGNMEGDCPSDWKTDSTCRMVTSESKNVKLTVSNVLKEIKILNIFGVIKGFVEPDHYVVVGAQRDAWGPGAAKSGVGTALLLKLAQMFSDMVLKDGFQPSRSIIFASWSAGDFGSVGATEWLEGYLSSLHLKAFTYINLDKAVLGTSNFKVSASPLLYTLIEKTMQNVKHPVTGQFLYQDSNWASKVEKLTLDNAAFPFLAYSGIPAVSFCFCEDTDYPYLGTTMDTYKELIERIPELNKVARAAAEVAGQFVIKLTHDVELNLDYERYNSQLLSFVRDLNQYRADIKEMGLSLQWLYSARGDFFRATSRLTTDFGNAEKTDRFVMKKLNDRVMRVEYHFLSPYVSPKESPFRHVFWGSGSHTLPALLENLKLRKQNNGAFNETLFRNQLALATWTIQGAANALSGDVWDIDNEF

| koff | Binder |
| --- | --- |
| 0.00194 s⁻¹ | B1 |
| 0.00178 s⁻¹ | B2 |
| 0.00663 s⁻¹ | B3 |
| 0.0019 s⁻¹ | B4 |
| 0.00126 s⁻¹ | B5 |
| 0.00139 s⁻¹ | B6 |
| 0.00463 s⁻¹ | B7 |
| 0.00113 s⁻¹ | B8 |
| 0.00221 s⁻¹ | B9 |
| 0.00242 s⁻¹ | B10 |
| 0.00541 s⁻¹ | B11 |
| 0.00136 s⁻¹ | B12 |
| 0.00149 s⁻¹ | B13 |
| 0.00219 s⁻¹ | B14 |
| 0.00252 s⁻¹ | B15 |
| 0.00142 s⁻¹ | B16 |
| 0.00188 s⁻¹ | B17 |
| 0.00139 s⁻¹ | B18 |

| koff | Binder |
| --- | --- |
| 0.00617 s⁻¹ | B19 |
| 0.000934 s⁻¹ | B20 |
| 0.00189 s⁻¹ | B21 |
| 0.00111 s⁻¹ | B22 |
| 0.000905 s⁻¹ | B23 |
| 0.000338 s⁻¹ | B24 |
| 0.000921 s⁻¹ | B25 |
| 0.000772 s⁻¹ | B26 |
| 0.000565 s⁻¹ | B27 |
| 0.000653 s⁻¹ | B28 |
| 0.00109 s⁻¹ | B29 |
| 0.000413 s⁻¹ | B30 |
| 0.000515 s⁻¹ | B31 |
| 0.000506 s⁻¹ | B32 |
| 0.000763 s⁻¹ | B33 |
| 0.001 s⁻¹ | B34 |
| 0.000908 s⁻¹ | B35 |
| 0.000901 s⁻¹ | B36 |
